{"source": "patent US8809287B2", "about": "“Compositions and methods for altering Wnt autocrine signaling” (Icahn School of Medicine at Mount Sinai, priority 2004, dated 2014)", "molecules": {"B1": {"name": "DKK1: Dickkopf-1, secreted Wnt antagonist protein that binds Wnt co-receptor LRP6; used purified, in conditioned media or retrovirally expressed with HA tag (protein, UniProt O94907 32-266, looked up)", "Dickkopf-related protein 1": "TLNSVLNSNAIKNLPPPLGGAAGHPGSAVSAAPGILYPGGNKYQTIDNYQPYPCAEDEECGTDEYCASPTRGGDAGVQICLACRKRRKRCMRHAMCCPGNYCKNGICVSSDQNHFRGEIEETITESFGNDHSTLDGYSRRTTLSSKMYHTKGQEGSVCLRSSDCASGLCCARHFWSKICKPVLKEGQVCTKHRRKGSHGLEIFQRCYCGEGLSCRIQKDHHQASNSSRLHTCQRH", "modifications": "HA tag in some uses"}, "B2": {"name": "FRP1: human secreted Frizzled Related Protein 1, Wnt antagonist; expressed from pBabe-derived retrovirus with carboxy-terminal HA tag (protein, UniProt Q8N474 32-314, looked up)", "Secreted frizzled-related …": "SEYDYVSFQSDIGPYQSGRFYTKPPQCVDIPADLRLCHNVGYKKMVLPNLLEHETMAEVKQQASSWVPLLNKNCHAGTQVFLCSLFAPVCLDRPIYPCRWLCEAVRDSCEPVMQFFGFYWPEMLKCDKFPEGDVCIAMTPPNATEASKPQGTTVCPPCDNELKSEAIIEHLCASEFALRMKIKEVKKENGDKKIVPKKKKPLKLGPIKKKDLKKLVLYLKNGADCPCHQLDNLSHHFLIMGRKVKSQYLLTAIHKWDKKNKEFKNFMKKMKNHECPTFQSVFK", "modifications": "C-terminal HA tag", "notes": "human secreted Frizzled Related Protein 1, Wnt antagonist; expressed from pBabe-derived retrovirus with carboxy-terminal HA tag"}}, "key": {"uncomplexed β-catenin [1]": {"system": "uncomplexed β-catenin", "experiment": "Uncomplexed β-catenin in MDAMB157 breast tumor cells", "format": "cell-based, human", "set-up": "levels of uncomplexed β-catenin: dose or concentration left out as unconfirmed", "conditions": "for uncomplexed β-catenin levels: stable expression by retroviral mediated transduction", "procedure": "(§1) β-catenin levels were assessed using the GST-E-cadherin binding assay, which has been previously described (Bafico et al., (1998) Oncogene 16:2819-2825). Briefly, bacterially expressed GST-E-cadherin was purified with glutathione-Sepharose beads and incubated with 1 mg of each cell lysate. The GST-E-cadherin/[…]-catenin complex bound to the beads was recovered by centrifugation and analyzed by SDS-PAGE followed by immunoblotting. The uncomplexed β-catenin was detected using a monoclonal antibody to β-catenin (Transduction Laboratories). Unphosphorylated β-catenin was detected with a monoclonal antibody specific for β-catenin dephosphorylated at residues 27-37 (Alexis, Läufelfingen, Switzerland). FRP1-HA and DKK1-HA were detected with an anti-HA monoclonal antibody (Hybridoma Center, Mount Sinai School of Medicine, New York).\nMDAMB157 cell cultures were exposed to increasing concentrations of purified DKK1, and then were solubilized and analyzed for uncomplexed β-catenin using immunoblot analysis and an anti-[…]-catenin antibody as described in Example 3.\nMDAMB157 cells were infected with vector alone, FRP1-HA (described in Example 1), or DKK1-HA (described in Example 1) retroviruses and marker selected. Uncomplexed β-catenin protein levels were analyzed using immunoblot analysis with an anti-β-catenin antibody as described in Example 3. Expression of FRP1-HA or DKK1-HA were assessed by immunblot analysis of lysates using an anti-HA monoclonal antibody (Hybridoma Center, Mount Sinai School of Medicine, New York)."}, "uncomplexed β-catenin [2]": {"system": "uncomplexed β-catenin", "experiment": "GST-E-cadherin binding assay / immunoblot, NIH3T3 cells expressing β-catenin under Tet promoter", "format": "cell-based, mouse", "conditions": "β-catenin under tet regulatable promoter, purified DKK1 (10 nM)", "procedure": "as §1, with “York). […]” for “York).”"}, "keratin 8": {"system": "keratin 8", "experiment": "RNA blot of keratin 8 in MDAMB157 cells", "format": "cell-based, human", "conditions": "stable expression", "procedure": "Total RNAs from MDAMB157 cells exogenously expressing vector alone, FRP1, or DKK1 were extracted using Triazol (Invitrogen), separated by agarose gel electrophoresis (1% agarose gel) and transferred to a nylon membrane (Hybond, Pharmacia). Probes were labeled by the Random Prime Labelling System method (Amersham Biosciences), and hybridization was performed overnight utilizing the Hybrisol I solution (Serologicals Corporation) according to the manufacturer's instructions. Normalization was performed utilizing a commercial human GADPH control probe (BD Biosciences Clontech). Probes were labelled with α-^32P-dCTP.\nSince canonical Wnt signaling appears to be involved in maintaining epithelial progenitor cells of several tissues (van de Wetering et al. (2002) Cell 111:241-250; Alonso and Fuchs (2003) Genes Dev. 17:1189-1200; Reya et al. (2003) Nature 423:409-414; Polesskaya et al. (2003) Cell 113, 841-852), including the mouse mammary gland (Li et al. (2003) Proc Natl Acad Sci U.S.A. 100:15853-15858; Liu et al. (2004) Proc. Nat'l Acad. Sci. U.S.A. 101:4158-4163), we also investigated whether downregulation of Wnt signaling in MDAMB157 tumor cells affected their differentiated state. […] All of these findings provide evidence for a Wnt autocrine transforming mechanism in human tumor cells."}, "uncomplexed β-catenin [3]": {"system": "uncomplexed β-catenin", "experiment": "Uncomplexed β-catenin in A1847 ovarian tumor cells", "format": "cell-based, human", "conditions": "FRP1-HA retrovirus", "procedure": "as §1\nBreast (MDAMB231, ATCC No. HTB-26) and ovarian A1847 tumor cell lines were infected with vector alone or FRP 1-HA (described in Example 1) retroviruses and marker selected. […] Breast (MDAMB231) and ovarian A1847 tumor cell lines were analyzed for uncomplexed β-catenin and FRP 1-HA by immunoblot analysis with either an anti-β-catenin antibody (Transduction Laboratories) or an anti-HA antibody (Hybridoma Center, Mount Sinai School of Medicine, New York). […]"}, "cyclin D1": {"system": "cyclin D1", "experiment": "Northern blot of Cyclin D1 in HCT116 clone", "format": "cell-based, human", "conditions": "HCT116 wild type allele-containing clone", "from_the_text": "(§2) We next assessed the effects of FRP1 inhibition on the expression of Id2, Cyclin D1 and Myc, known targets of Wnt/β-catenin in colorectal cancer (Rockman et al. (2001) J. Biol. Chem. 276:45113-45119; Tetsu and McCormick (1999) Nature 398:422-426; He et al. (1998) Science 281:1509-1512). RNAs were extracted from HCT116 parental cells, and either wild type or mutant β-catenin allele containing clones transfected with either vector control or FRP1-HA using Triazol (Invitrogen). The RNAs were separated by (1%) agarose gel electrophoresis and transferred to a nylon membrane (Hybond®, Pharmacia). Probes were labeled by the Random Prime Labelling System method (Amersham Biosciences), and hybridization was performed overnight utilizing the Hybrisol I solution (Serologicals Corporation) according to the manufacturer's instructions. Normalization was performed utilizing a commercial human GADPH control probe (BD Biosciences Clontech)."}, "MYC": {"system": "MYC", "experiment": "Northern blot of Myc in HCT116 clone", "format": "cell-based, human", "conditions": "HCT116 wild type allele-containing clone", "from_the_text": "as §2"}}, "data": [{"molecule": "B1", "values": [{"measurement": "levels of uncomplexed β-catenin", "setting": "uncomplexed β-catenin [1]; increasing concentrations of purified DKK1", "result": "dose dependent, marked reduction"}, {"measurement": "uncomplexed β-catenin levels", "setting": "uncomplexed β-catenin [1]", "result": "dramatic reduction"}, {"measurement": "uncomplexed β-catenin induced by exogenous β-catenin", "setting": "uncomplexed β-catenin [2]", "result": "no effect"}, {"measurement": "expression of keratin 8", "setting": "keratin 8", "result": "striking increase"}]}, {"molecule": "B2", "values": [{"measurement": "uncomplexed β-catenin levels", "setting": "uncomplexed β-catenin [1]", "result": "dramatic reduction"}, {"measurement": "constitutively up-regulated β-catenin", "setting": "uncomplexed β-catenin [3]", "result": "inhibition of constitutively up-regulated β-catenin"}, {"measurement": "expression of keratin 8", "setting": "keratin 8", "result": "striking increase"}, {"measurement": "expression of Cyclin D1", "setting": "cyclin D1", "result": "dramatically inhibited"}, {"measurement": "expression of Myc", "setting": "MYC", "result": "dramatically inhibited"}]}]}
